Results from patent publication US7608407B2, “Fluorescence polarization assay for determining histidine decarboxylase activity” (Boehringer Ingelheim Pharmaceuticals, Inc., priority 2004, dated 2009).

Substrate: N[C@@H](Cc1c[nH]cn1)C(=O)O
Test: Km of HDC for its substrate histidine
Type: biochemical, human
Details: other: 54 Kd form, data not shown

B1: HDC (54 Kd form) (Homo sapiens; S148Q) (protein)
chain: MMEPEEYRERGREMVDYICQYLSTVRERRVTPDVQPGYLRAQLPESAPEDPDSWDSIFGDIERIIMPGVVHWQSPHMHAYYPALTSWPSLLGDMLADAINCLGFTWASSPACTELEMNVMDWLAKMLGLPEHFLHHHPSSQGGGVLQQTVSESTLIALLAARKNKILEMKTSEPDADESCLNARLVAYASDQAHSSVEKAGLISLVKMKFLPVDDNFSLRGEALQKAIEEDKQRGLVPVFVCATLGTTGVCAFDCLSELGPICAREGLWLHIDAAYAGTAFLCPEFRGFLKGIEYADSFTFNPSKWMMVHFDCTGFWVKDKYKLQQTFSVNPIYLRHANSGVATDFMHWQIPLSRRFRSVKLWFVIRSFGVKNLQAHVRHGTEMAKYFESLVRNDPSFEIPAKRHLGLVVFRLKGPNCLTENVLKEIAKAGRLFLIPATIQDKLIIRFTVTSQFTTRDDILRDWNLIRDAATLILSQ
**Q.** With B1 as the protein, how does the Km read?
**A.** 275 µM
